Laboratory results taken from patent US20210317456.

Legend:
[1] = test system: Immunoglobulin G (total IgG); assay: pulldown; conditions: SB18, 37C
[2] = test system: Immunoglobulin G (total IgG) (Homo sapiens); assay: filter
[3] = n (P) = NapdU, considered no binding
[4] = n (P) = NapdU, SB18, 5 mM MgCl2, 37 C

For “GAACTCCCTGAATGCTCTTGTCTTAAGTCCCCAACA [14125-144_10]”, the Kd ([1]; P = NapdU, bead partitioning) was over 1000 nM.

For “GACTGCGGTTACCTTGTAGGCGATTATGGGCAG [5334-8_21]”, the Kd ([2]; n (P) = 2NapdU, SB18, 5 mM MgCl2, 37 C) was 6.77 nM.

“GATGGCGAACTCCCTGAATGCTCTTGTC [14125-144_36]” was tested, and the Kd [2, 3] was over 1000 nM.

With “GATGGCGAACTCCCTGAATGCTCTTGTCT [14125-144_32]” the Kd [2, 3] was over 1000 nM.

“GATGGCGAACTCCCTGAATGCTCTTGTCTT [14125-144_28]” showed a Kd [2, 4] of 17.2 nM.

“GATGGCGAACTCCCTGAATGCTCTTGTCTTA [14125-144_24]” showed a Kd [2, 4] of 9.89 nM.

Work on “GATGGCGAACTCCCTGAATGCTCTTGTCTTAA [14125-144_20]” yielded a Kd [2, 4] of 6.67 nM.

“GATGGCGAACTCCCTGAATGCTCTTGTCTTAAGTCCCCAACA [14125-144_7]” was tested, and the Kd [2, 4] was 6.96 nM.

“GATTTTCAGTTGGATCCAGTACCTGGCTGGAGAGAA [5406-56_10]” showed a Kd ([1]; P = NapdU, bead partitioning) of over 1000 nM.

In the case of “GCACGATGGCGAACTCCCTGAATGCTCTTGTCTTAAGTCCCCAACA [14125-144_5]”, the Kd [2, 4] is reported as 8.87 nM.

In the case of “GCACTCCACATCCAAGACTGCGGTTACCTTGTAGGCGATTATGGGCAG [5334-8_4]”, the Kd ([1]; P = 2NapdU, bead partitioning) is reported as 17.3 nM.

Sequence “GCCTGCACGATGGCGAACTCCCTGAATGCTCTTG [14125-144_19]” has a Kd [2, 3] of over 1000 nM.

Work on “GCCTGCACGATGGCGAACTCCCTGAATGCTCTTGTC [14125-144_18]” yielded a Kd ([1]; P = NapdU, bead partitioning) of over 1000 nM.

“GCCTGCACGATGGCGAACTCCCTGAATGCTCTTGTCTT [14125-144_17]” was tested, and the Kd ([1]; P = NapdU, bead partitioning) was 15.4 nM.

With “GCCTGCACGATGGCGAACTCCCTGAATGCTCTTGTCTTAA [14125-144_16]” the Kd [2, 4] was 8.82 nM.

For “GCCTGCACGATGGCGAACTCCCTGAATGCTCTTGTCTTAAGT [14125-144_15]”, the Kd ([1]; P = NapdU, bead partitioning) was 14.6 nM.

For “GCCTGCACGATGGCGAACTCCCTGAATGCTCTTGTCTTAAGTCC [14125-144_14]”, the Kd [2, 4] was 15.8 nM.

Sequence “GCCTGCACGATGGCGAACTCCCTGAATGCTCTTGTCTTAAGTCCCC [14125-144_13]” has a Kd [2, 4] of 14.3 nM.

“GCCTGCACGATGGCGAACTCCCTGAATGCTCTTGTCTTAAGTCCCCAA [14125-144_12]” gave a Kd [2, 4] of 17.2 nM.

In the case of “GCGAACTCCCTGAATGCTCTTGTCTTAAGTCCCCAACA [14125-144_9]”, the Kd ([1]; P = NapdU, bead partitioning) is reported as over 1000 nM.

With “GCGGTTACCTTGTAGGCGATTATGGGCAG [5334-8_25]” the Kd ([1]; P = 2NapdU, bead partitioning) was 5.83 nM.

For “GGCGAACTCCCTGAATGCTCTTGTC [14125-144_39]”, the Kd [2, 3] was over 1000 nM.

“GGCGAACTCCCTGAATGCTCTTGTCT [14125-144_35]” showed a Kd [2, 3] of over 1000 nM.

“GGCGAACTCCCTGAATGCTCTTGTCTT [14125-144_31]” gave a Kd ([1]; P = NapdU, bead partitioning) of over 1000 nM.

“GGCGAACTCCCTGAATGCTCTTGTCTTA [14125-144_27]” gave a Kd ([1]; P = NapdU, bead partitioning) of over 1000 nM.

With “GGCGAACTCCCTGAATGCTCTTGTCTTAA [14125-144_23]” the Kd ([1]; P = NapdU, bead partitioning) was over 1000 nM.

For “GGTACGATTTTCAGTTGGATCCAGTACC [5406-56_42]”, the Kd [2, 4] was 4.97 nM.

With “GGTACGATTTTCAGTTGGATCCAGTACCT [5406-56_36]” the Kd [2, 4] was 3.44 nM.

“GGTACGATTTTCAGTTGGATCCAGTACCTG [5406-56_30]” gave a Kd [2, 4] of 3.22 nM.

Work on “GGTACGATTTTCAGTTGGATCCAGTACCTGG [5406-56_24]” yielded a Kd ([2]; n (P) = NapdU, SB18, 5 mM MgCl2, 37 C, sequence identical to _21 to _25) of 5.1 nM.

With GGTTACCTTGTAGGCGATTATGGGCAG [5334-8_27] the Kd ([1]; P = 2NapdU, bead partitioning) was 279 nM.

In the case of GTACGATTTTCAGTTGGATCCAGTAC [5406-56_49], the Kd ([1]; P = NapdU, bead partitioning) is reported as 17.6 nM.

“GTACGATTTTCAGTTGGATCCAGTACC [5406-56_43]” was tested, and the Kd [2, 4] was 11 nM.

“GTACGATTTTCAGTTGGATCCAGTACCT [5406-56_37]” gave a Kd ([1]; P = NapdU, bead partitioning) of 9.44 nM.

In the case of “GTACGATTTTCAGTTGGATCCAGTACCTG [5406-56_31]”, the Kd ([1]; P = NapdU, bead partitioning) is reported as 14.8 nM.

“GTACGATTTTCAGTTGGATCCAGTACCTGGCTGGAGAGAA [5406-56_8]” showed a Kd ([1]; P = NapdU, bead partitioning) of 78.1 nM.

For TACGATTTTCAGTTGGATCCAGTAC [5406-56_50], the Kd ([1]; P = NapdU, 25-mer core) was 18.8 nM.

TACGATTTTCAGTTGGATCCAGTACC [5406-56_44] showed a Kd ([1]; P = NapdU, bead partitioning) of 36.2 nM.

“TACGATTTTCAGTTGGATCCAGTACCT [5406-56_38]” was tested, and the Kd ([1]; P = NapdU, bead partitioning) was over 1000 nM.

Sequence “TACGATTTTCAGTTGGATCCAGTACCTG [5406-56_32]” has a Kd ([1]; P = NapdU, bead partitioning) of 75.4 nM.

“TACGATTTTCAGTTGGATCCAGTACCTGG [5406-56_26]” showed a Kd ([1]; P = NapdU, bead partitioning) of 64.3 nM.

For “TACGGTACGATTTTCAGTTGGATCCAGTACCTGG [5406-56_21]”, the Kd ([1]; P = NapdU, table prints a shorter sequence than the listing for SEQ 18) was 8.13 nM.

In the case of “TACGGTACGATTTTCAGTTGGATCCAGTACCTGGCTGGAGAGAA [5406-56_6]”, the Kd ([1]; P = NapdU, bead partitioning) is reported as 9.05 nM.

“TCCACATCCAAGACTGCGGTTACCTTGTAGGCGATTATGGGCAG [5334-8_6]” was tested, and the Kd ([1]; P = 2NapdU, bead partitioning) was 7.89 nM.

With “TCCATACGGTACGATTTTCAGTTGGATCCAGTACCTGGCTGGAGAGAA [5406-56_4]” the Kd ([1]; P = NapdU, bead partitioning) was 3.11 nM.

“TGGCGAACTCCCTGAATGCTCTTGTC [14125-144_38]” was tested, and the Kd ([1]; P = NapdU, bead partitioning) was over 1000 nM.

With “TGGCGAACTCCCTGAATGCTCTTGTCT [14125-144_34]” the Kd ([1]; P = NapdU, bead partitioning) was over 1000 nM.

“TGGCGAACTCCCTGAATGCTCTTGTCTTA [14125-144_26]” was tested, and the Kd ([1]; P = NapdU, bead partitioning) was 5.03 nM.

Sequence “TGGCGAACTCCCTGAATGCTCTTGTCTTAA [14125-144_22]” has a Kd ([1]; P = NapdU, bead partitioning) of 3.55 nM.

With “TGGCGAACTCCCTGAATGCTCTTGTCTTAAGTCCCCAACA [14125-144_8]” the Kd ([1]; P = NapdU, bead partitioning) was 6.82 nM.

Sequence “TTTTCAGTTGGATCCAGTACCTGGCTGGAGAGAA [5406-56_11]” has a Kd ([1]; P = NapdU, bead partitioning) of over 1000 nM.
